# According to article doi:10.1101/2024.02.16.580631 (bioRxiv, 2024):
# B1: Nucleoside diphosphate kinase B (NDPKB), human (enzyme)
# chain: ANLERTFIAIKPDGVQRGLVGEIIKRFEQKGFRLVAMKFLRASEEHLKQHYIDLKDRPFFPGLVKYMNSGPVVAMVWEGLNVVKTGRVMLGETNPADSKPGTIRGDFCIQVGRNIIHGSDSVKSAEKEISLWFKPEELVDYKSCAHDWVYE
# modifications: phosphorylated histidine at 118 (His 118-P) in the crystal
# Molecular target: the molecule itself
# Experiment: crystal structure
protein,measurement,value
B1,stoichiometry N,6
